{"source": "patent US20150259664", "proteins": {"B1": {"name": "Escherichia coli Outer Membrane Protein T1 (OmpT1) (protein)", "chain": "STETLSFTPDNINADISLGTLSGKTKERVYLAEEGGRKVSQLDWKFNNAAIIKGAINWDLMPQISIGAAGWTTLGSRGGNMVDQDWMDSSNPGTWTDESRHPDTQLNYANEFDLNIKGWLLNEPNYRLGLMAGYQESRYSFTARGGSYIYSSEEGFRDDIGSFPNGERAIGYKQRFKMPYIGLTGSYRYEDFELGGTFKYSGWVESSDNDEHYDPGKRITYRSKVKDQNYYSVAVNAGYYVTPNAKVYVEGAWNRVTNKKGNTSLYDHNNNTSDYSKNGAGIENYNFITTAGLKYTF"}}, "key": {"[1]": {"biological_target": "Escherichia coli Release Factor 1 (RF1), wild type"}, "[2]": {"biological_target": "RF1 variant A-13 (N296K/L297R)"}, "[3]": {"biological_target": "T1, RF1 variant A-17 (N296K/L297R/L298K)", "T1 chain": "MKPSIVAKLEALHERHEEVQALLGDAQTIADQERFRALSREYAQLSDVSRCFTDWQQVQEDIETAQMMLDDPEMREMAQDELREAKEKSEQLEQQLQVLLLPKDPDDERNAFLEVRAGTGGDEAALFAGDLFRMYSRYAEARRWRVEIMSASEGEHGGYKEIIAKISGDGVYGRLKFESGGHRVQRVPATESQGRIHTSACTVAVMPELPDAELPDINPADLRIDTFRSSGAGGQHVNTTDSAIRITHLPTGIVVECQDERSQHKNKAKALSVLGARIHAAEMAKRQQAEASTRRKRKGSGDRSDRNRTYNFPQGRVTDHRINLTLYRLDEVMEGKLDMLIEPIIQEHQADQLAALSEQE"}, "[4]": {"biological_target": "T2, RF1 variant A-18 (N296K/L297R/L298R)", "T2 chain": "T1 chain with K298R"}}, "note": "Residue numbers refer to the chain shown, from its start.", "data": [{"protein": "B1", "values": [{"measurement": "cleavage in lysed strain SBJY001, 0, 1, 2 and 3 hours (Western blot)", "setting": "[1]", "value": "cleavage of unmodified, wild-type RF1 by strain SBJY001 was not detected over the same time periods"}, {"measurement": "cleavage in lysed recombinant strain, 0, 1, 2 and 3 hours (Western blot)", "setting": "[2]", "value": "the modified RF1 protein variants were efficiently cleaved at all time points tested by the cell-free extract, as determined by Western blot analysis (data not shown)"}, {"measurement": "cleavage in lysed recombinant strain, 0, 1, 2 and 3 hours (Western blot)", "setting": "[3]", "value": "the modified RF1 protein variants were efficiently cleaved at all time points tested by the cell-free extract, as determined by Western blot analysis (data not shown)"}, {"measurement": "cleavage in lysed recombinant strain, 0, 1, 2 and 3 hours (Western blot)", "setting": "[4]", "value": "the modified RF1 protein variants were efficiently cleaved at all time points tested by the cell-free extract, as determined by Western blot analysis (data not shown)"}]}]}
